Measured values reported in US20200087408A1 (ANAPTYSBIO, published 2020).

T1: human IL-36R (on cells) (human, UniProt Q9HB29 20-575)
T1 sequence (looked up): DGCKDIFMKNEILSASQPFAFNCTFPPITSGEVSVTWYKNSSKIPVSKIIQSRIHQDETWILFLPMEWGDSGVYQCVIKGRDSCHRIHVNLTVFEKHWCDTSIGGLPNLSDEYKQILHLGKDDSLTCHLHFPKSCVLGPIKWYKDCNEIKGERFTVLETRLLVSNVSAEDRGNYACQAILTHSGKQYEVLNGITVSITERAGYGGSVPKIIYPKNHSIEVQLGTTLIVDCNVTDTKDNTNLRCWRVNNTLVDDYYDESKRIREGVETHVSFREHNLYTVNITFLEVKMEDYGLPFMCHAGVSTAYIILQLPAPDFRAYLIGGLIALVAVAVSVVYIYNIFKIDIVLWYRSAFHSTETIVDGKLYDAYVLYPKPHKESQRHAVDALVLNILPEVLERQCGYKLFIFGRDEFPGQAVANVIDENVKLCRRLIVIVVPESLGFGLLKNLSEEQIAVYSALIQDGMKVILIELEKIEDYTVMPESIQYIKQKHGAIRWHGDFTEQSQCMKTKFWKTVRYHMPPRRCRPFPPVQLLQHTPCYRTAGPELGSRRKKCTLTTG

T2: extracellular domain of human IL-36R (human, UniProt Q9HB29 20-335)
T2 construct: extracellular domain; Immobilised on the chip in the BIACORE assay; soluble and bead-coupled in the KINEXA assay; also called soluble human IL-36R extracellular domain
T2 sequence (looked up): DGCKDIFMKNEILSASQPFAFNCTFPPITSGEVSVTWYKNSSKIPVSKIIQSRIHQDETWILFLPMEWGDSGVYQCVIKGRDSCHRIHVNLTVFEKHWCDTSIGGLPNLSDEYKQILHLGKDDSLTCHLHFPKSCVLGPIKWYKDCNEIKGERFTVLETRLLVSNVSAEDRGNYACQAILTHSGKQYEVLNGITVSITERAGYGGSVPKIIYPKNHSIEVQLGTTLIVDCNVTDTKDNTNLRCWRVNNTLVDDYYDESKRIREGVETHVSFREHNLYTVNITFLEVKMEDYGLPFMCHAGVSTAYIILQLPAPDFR


Assays:
[1] = target: cyno IL-36R (BIACORE antigen of Table 4) (cynomolgus monkey); experiment: BIACORE T200 SPR, cyno IL-36R
[2] = target: T1, human IL-36R (on cells); experiment: cell-based or functional assay
[3] = target: T1, human IL-36R (on cells); experiment: cell-based or functional assay; remark: listed apart in the source
[4] = target: T1, human IL-36R (on cells); experiment: cell-based or functional assay; remark: listed apart in the source
[5] = target: T2, extracellular domain of human IL-36R; experiment: KINEXA 3000 solution-phase equilibrium, soluble human IL-36R extracellular domain
Experimental: The binding affinities of various purified antibodies comprising immunoglobulin heavy chain (HC) and light chain (LC) polypeptides described herein also were evaluated using a KINEXA® 3000 assay (Sapidyne Instruments, Boise, Id.) assays. KINEXA® technology measures the amount of unbound/free antibody molecule in solution phase after incubation with varying concentrations of antigen. Measuring binding events in the solution phase with micro beads for maximized surface area avoids mass transport limitations and mobility effects inherent to methods that measure binding to a solid phase. For each experiment, 50 μg of soluble human or cyno IL-36R extracellular domain was amine-coupled to 50 mg of UltraLink Biosupport beads (Thermo Fisher Scientific, Waltham, Mass.). […] Antibody-antigen solution was then flowed over antigen-coupled beads at a rate of 0.25 mL/min. Free antibody captured by beads was detected using ALEXA FLUOR™ 647-conjugated AffiniPure Donkey Anti-Human IgG (H+L) (Jackson ImmunoResearch, West Grove, Pa.) (500 ng/ml). The KD and/or ABC (active binding concentration) of antibody was obtained from non-linear regression analysis using a one-site homogeneous binding model in the KINEXA™ Pro Software.

[6] = target: T2, extracellular domain of human IL-36R; experiment: BIACORE T200 SPR, human IL-36R extracellular domain immobilised, antibody injected
Experimental: The binding affinities of various purified antibodies comprising immunoglobulin heavy chain (HC) and light chain (LC) polypeptides described herein were evaluated using BIACORE™ T200 […] assays. BIACORE™ T200 evaluation software (GE Healthcare, Buckinghamshire, United Kingdom) is used to determine antibody-antigen binding kinetics and affinity. The extracellular domain of human IL-36R was immobilized at approximately 100 RU onto a CMS sensor chip (GE Healthcare, Waukesha, Wis.) using amine coupling chemistry. HBS-EP+ buffer (0.01 M HEPES, 0.15 M NaCl, 3 mM EDTA, 0.05% Polysorbate, pH 7.6) (Teknova, Hollister, Calif.) was used to reconstitute each antibody at various concentrations Each antibody concentration was then injected for two to three minutes over immobilized antigen at a flow rate of 30 μL/min, and allowed to dissociate for 15 minutes. The surface was regenerated with 60 μL of 3 M MgCl₂ after each cycle. Association and dissociation kinetic constants (kon and koff) were fit globally using a 1:1 binding model with mass transport with the BIACORE™ T200 evaluation software in order to report on- and off-rates (ka and kd, respectively), as well as affinities (KD).

[7] = target: cynomolgus monkey IL-36R variant 1 (on cells) (cynomolgus monkey); experiment: cell-based or functional assay
[8] = target: T1, human IL-36R (on cells); experiment: flow cytometry on CHO-K cells co-expressing human IL-36R and human IL-1RAcP
Experimental: The binding of antibodies to CHO-K cells stably co-expressing human IL-36R and human IL-1RAcP was examined. Cynomolgus IL-36R allelic variation was examined by Sanger sequencing, and four distinct allelic variants were identified within cynomolgus monkey populations. The binding of antibodies to CHO-K cells stably co-expressing cynomolgus monkey IL-36R variant 1 and cynomolgus monkey IL-1RAcP was also examined for APE6155 and APE7247. Each antibody was incubated with CHO cells harvested using accutase, washed, and seeded at 500,000 cells per well. Cells were incubated with antibodies at concentrations ranging from 33 nM-16 pM for 30 minutes at 4° C., and washed three times with FACS staining buffer. Cells were spun and aspirated, and then the incubated with 100 μl paraformaldehyde for 10 minutes at room temperature. Cells were again washed, aspirated, and stained with 100 μL of anti-human IgG Alexa 647 for 20 minutes at 4° C. Cells were resuspended in 100 μL FACS analysis buffer before analysis on the FACS Array (BD Biosciences).

[9] = target: cynomolgus monkey IL-36R variant 1 (on cells) (cynomolgus monkey); experiment: flow cytometry on CHO-K cells co-expressing cynomolgus IL-36R variant 1 and cynomolgus IL-1RAcP
[10] = target: cynomolgus IL-36R (on cells, allelic variant not stated) (cynomolgus monkey), A0A2K5; experiment: cell-based or functional assay
[11] = target: cynomolgus monkey IL-36R variant 2 (on cells) (cynomolgus monkey), A0A2K5; experiment: cell-based or functional assay
[12] = target: cynomolgus monkey IL-36R variant 3 (on cells) (cynomolgus monkey), A0A2K5; experiment: cell-based or functional assay
cynomolgus monkey IL-36R variant 3 (on cells) (cynomolgus monkey), A0A2K5, sequence (chain, as listed by the source mutant): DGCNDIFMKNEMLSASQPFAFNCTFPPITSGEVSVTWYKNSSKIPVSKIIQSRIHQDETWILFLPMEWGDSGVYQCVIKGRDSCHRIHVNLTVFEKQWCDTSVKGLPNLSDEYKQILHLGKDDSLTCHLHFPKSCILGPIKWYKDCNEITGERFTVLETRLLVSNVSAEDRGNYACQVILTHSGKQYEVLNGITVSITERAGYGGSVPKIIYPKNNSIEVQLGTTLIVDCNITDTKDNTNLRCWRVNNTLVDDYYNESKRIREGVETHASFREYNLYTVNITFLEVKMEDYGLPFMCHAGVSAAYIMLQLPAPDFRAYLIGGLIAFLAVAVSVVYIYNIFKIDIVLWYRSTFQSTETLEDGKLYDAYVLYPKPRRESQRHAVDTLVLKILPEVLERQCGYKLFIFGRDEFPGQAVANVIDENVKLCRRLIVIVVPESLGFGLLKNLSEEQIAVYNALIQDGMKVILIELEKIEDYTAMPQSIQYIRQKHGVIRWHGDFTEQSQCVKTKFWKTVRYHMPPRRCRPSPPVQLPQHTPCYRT

cynomolgus IL-36R (on cells, allelic variant not stated) (cynomolgus monkey), A0A2K5, sequence (chain, as listed by the source mutant): as above
cynomolgus monkey IL-36R variant 2 (on cells) (cynomolgus monkey), A0A2K5, sequence (chain, as listed by the source mutant): as above

Row | Binder | Kd [1] | EC50 (nM), HEK human IL-36R IL-8 luciferase reporter assay, 50 ng/ml hIL-36α [2] | EC50 (nM), HEK human IL-36R IL-8 luciferase reporter assay, 200 ng/ml hIL-36γ [2] | EC50 (nM), IL-8 secretion by primary human keratinocytes, 1 ng/ml human IL-36β [3] | EC50 (nM), IL-8 secretion by primary human keratinocytes, 10 ng/ml human IL-36α [3] | EC50 (nM), IL-8 secretion by primary human keratinocytes, 100 ng/ml human IL-36γ [3] | EC50 (nM), IL-8 secretion by primary human monocytes, human IL-36α [4] | EC50 (nM), IL-8 secretion by primary human monocytes, human IL-36β [4] | EC50 (nM), IL-8 secretion by primary human monocytes, human IL-36γ [4] | Kd [5] | Kd [6] | EC50 (nM), IL-8 luciferase reporter assay, 300 ng/ml IL-36γ (Cyno IL-36R variant 1) [7] | EC50 (nM), HEK human IL-36R IL-8 luciferase reporter assay, 20 ng/ml hIL-36β [2] | EC50 [8] | EC50 [9] | EC50 (nM), HEK cyno IL-36R IL-8 luciferase reporter assay, 300 ng/ml cIL-36γ [10] | EC50 (nM), IL-8 secretion by primary cynomolgus keratinocytes, 10 ng/ml cyno IL-36β [10] | EC50 (nM), IL-8 secretion by primary cynomolgus keratinocytes, 50 ng/ml cyno IL-36α [10] | EC50 (nM), IL-8 secretion by primary cynomolgus keratinocytes, 250 ng/ml cyno IL-36γ [10] | EC50 (nM), IL-8 luciferase reporter assay, 300 ng/ml IL-36γ (Cyno IL-36R variant 2) [11] | other results
1 | Humanized (HzD) 1D9 (APE5281) (antibody, V domains shown, also called 1D9 Humanized) VH: QVQLMQSGAEVKKPGASVKVSCKASGFTFTSYDINWVRQAPGQRLEWMGWIYPGDSSTKYNEKFKGRVTITADKSANTAYMELASLRSEDTAVYFCTRSFYTMDYWGQGTTVTVSS VL: DIVMTQSPLSLPVTPGEPASISCRSSKSLLHSNANTYLYWFLQKPGQSPQLLISRMSNLASGVPDRFSGSGSGTDFTLKISRVEAEDVGVYYCMQHLEYPFTFGQGTKLEIK | 0.126 nM | 0.17 nM | 0.12 nM | 0.053 nM | 0.047 nM | 0.04 nM | 0.035 nM | 0.033 nM | 0.027 nM | 0.008 nM | 0.077 nM | – | – | – | – | – | – | – | – | – | –
2 | Hzd 18D4 (APE7247) (antibody, V domains shown, also called APE6903; APE07247) VH: DVQFQESGPGLVKPSQTLSLTCTVTGYSITADFAWNWIRQPPGKGLEWIGYISYSGDTNYNPSLKSRVTITRDTSKNQFSLKLSSVTAADTAVYFCAIRGPYSFTYWGQGTLVTVSS VL: DIQMTQSPSSLSASVGDRVTITCRASQWINNYLNWYQQKPGKAPKLLIYYTSMLHSGVPSRFSPSGSGNDYTFTISSLQPEDIATYYCQQGHTLPWTFGGGTKVEIKR | < 0.02 nM | 0.066 nM | 0.104 nM | 0.336 nM | 0.142 nM | 0.074 nM | – | – | – | 0.1 nM | < 0.02 nM | 0.079 nM | 0.114 nM | 2.8 nM | 3.3 nM | – | – | – | – | – | –
3 | Hzd 5D3 (APE6155) (antibody, V domains shown, also called APE6917; APE06155) VH: QVQLVQSGAEVKKPGASVKVSCKASGYTFTNYWMNWVRQAPRQGLEWMGMFHPTGDVTRLNQKFKDRVTMTRDTSTSTVYMELSSLRSEDTAVYYCARTTSMIIGGFAYWGQGTLVTVSS VL: DIVMTQTPLSLSVTPGQPASISCRSSKSLLHRNAITYFYWYLHKPGQPPQLLIYQMSNLASGVPDRFSGSGSGTDFTLKISRVEAEDVGVYYCAQNLELPLTFGGGTKVEIK | – | 0.23 nM | 0.4 nM | 0.227 nM | 0.125 nM | 0.093 nM | 0.088 nM | 0.117 nM | 0.078 nM | 0.169 nM | 0.071 nM | 0.042 nM | 0.22 nM | 1.5 nM | 2.4 nM | 0.31 nM | 1.4 nM | 1.1 nM | 1.1 nM | 0.043 nM | EC50 (nM), HEK cyno IL-36R IL-8 luciferase reporter assay, 2 µg/ml cIL-36α [10]: 0.08 nM; EC50 (nM), HEK cyno IL-36R IL-8 luciferase reporter assay, 10 µg/ml cIL-36β [10]: 0.13 nM; EC50 (nM), IL-8 secretion by primary cynomolgus PBMCs, 10 ng/ml cyno IL-36β [10]: 1.5 nM; EC50 (nM), IL-8 secretion by primary cynomolgus PBMCs, 50 ng/ml cyno IL-36α [10]: 1.2 nM; EC50 (nM), IL-8 secretion by primary cynomolgus PBMCs, 250 ng/ml cyno IL-36γ [10]: 0.89 nM; EC50 (nM), IL-8 luciferase reporter assay, 300 ng/ml IL-36γ (Cyno IL-36R variant 3) [12]: 0.21 nM
4 | Hzd 18D4 (APE7247) (antibody, V domains shown) VH: DVQFQESGPGLVKPSQTLSLTCTVTGYSITADFAWNWIRQPPGKGLEWIGYISYSGDTNYNPSLKSRVTITRDTSKNQFSLKLSSVTAADTAVYFCAIRGPYSFTYWGQGTLVTVSSA VL: DIQMTQSPSSLSASVGDRVTITCRASQWINNYLNWYQQKPGKAPKLLIYYTSMLHSGVPSRFSPSGSGNDYTFTISSLQPEDIATYYCQQGHTLPWTFGGGTKVEIKRT | – | – | – | – | – | – | – | – | – | – | – | – | – | – | – | 0.24 nM | 1.8 nM | 2.3 nM | 5.6 nM | 0.065 nM | EC50 (nM), IL-8 luciferase reporter assay, 300 ng/ml IL-36γ (Cyno IL-36R variant 3) [12]: 0.42 nM
